# Source: US20170101476A1 (Novartis, published 2017)
# T1: Cynomolgus CXCR2 (cynomolgus, UniProt Q28519 3-353 (rhesus entry))
# T1 chain: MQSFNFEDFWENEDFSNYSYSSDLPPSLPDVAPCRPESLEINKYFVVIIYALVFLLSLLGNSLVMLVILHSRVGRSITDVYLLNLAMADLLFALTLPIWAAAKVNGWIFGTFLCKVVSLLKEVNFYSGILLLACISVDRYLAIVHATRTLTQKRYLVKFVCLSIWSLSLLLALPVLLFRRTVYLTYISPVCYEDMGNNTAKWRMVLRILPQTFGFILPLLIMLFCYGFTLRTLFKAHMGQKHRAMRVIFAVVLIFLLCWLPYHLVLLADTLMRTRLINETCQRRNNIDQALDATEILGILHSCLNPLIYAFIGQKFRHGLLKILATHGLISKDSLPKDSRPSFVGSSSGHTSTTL
# T2: Human CXCR2 (human, UniProt P25025 1-360)
# T2 sequence: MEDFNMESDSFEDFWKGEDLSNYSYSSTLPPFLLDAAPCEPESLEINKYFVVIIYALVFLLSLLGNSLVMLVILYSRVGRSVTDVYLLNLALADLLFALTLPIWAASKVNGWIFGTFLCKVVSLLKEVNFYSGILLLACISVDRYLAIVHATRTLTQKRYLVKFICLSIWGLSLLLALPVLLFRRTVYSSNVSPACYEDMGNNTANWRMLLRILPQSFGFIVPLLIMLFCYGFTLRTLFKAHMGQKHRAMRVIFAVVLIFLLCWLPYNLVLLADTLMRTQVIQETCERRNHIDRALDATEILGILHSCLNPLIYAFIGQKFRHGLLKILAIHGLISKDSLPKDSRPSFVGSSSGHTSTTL
# B1: CXCR20033 (bispecific antibody, not shown: small tags and cut ends)
# chain: EVQLVESGGGLVQPGGSLRLSCVASGRIFSSNAMGWFRQAPGKEREFVAAITWRSGGSAYYADSAKGRFTISRDNAKNTVYLQMNSLKPEDTAVYYCAAGGSSWLSFPPDYWGQGTQVTVSSGGGGSGGGGSGGGGSGGGGSGGGGSGGGGSGGGGSEVQLVESGGELVQPGGSLRLSCAASGSILTINAMGWYRQAPGKQRELVVRRTRGGSTTYQDSVKGRFTISADIAKKTMYLQMNSLKPEDTAVYYCMLDDRGGVYWGQGTQVTVSS
# B2: CXCR20020 (bispecific antibody, not shown: small tags and cut ends)
# chain: EVQLVESGGGLVQAGESLRLSCAASGSTFDFKVMGWYRQPPGKQREGVAAIRLSGNMHYAESVKGRFTISKANAKNTVYLQMNSLRPEDTAVYYCKVNIRGQDYWGQGTQVTVSSGGGGSGGGGSGGGGSGGGGSGGGGSGGGGSGGGGSEVQLVESGGGLVQAGGSLRLSCAASGRTFSDYAMGWFRQAPGKEREFVAAITWNGGRVFYTASVKGRFTISRDNAKNTMYLQMNSLKPEDTAVYYCAADKDRRTDYLGHPVAYWGQGTQVTVSS
# B3: CXCR20026 (bispecific antibody, not shown: small tags and cut ends)
# chain: EVQLVESGGGLVQPGGSLRLSCVASGRIFSSNAMGWFRQAPGKEREFVAAITWRSGGSAYYADSAKGRFTISRDNAKNTVYLQMNSLKPEDTAVYYCAAGGSSWLSFPPDYWGQGTQVTVSSGGGGSGGGGSGGGGSGGGGSGGGGSGGGGSGGGGSEVQLVESGGGLVQAGESLRLSCAASGSTFDFKVMGWYRQPPGKQREGVAAIRLSGNMHYAESVKGRFTISKANAKNTVYLQMNSLRPEDTAVYYCKVNIRGQDYWGQGTQVTVSS
# B4: CXCR20035 (other, not shown: small tags and cut ends)
# chain: EVQLVESGGGLVQAGGSLTLSCAVSGSTFRINTMGWYRRAPGKQRELVAARDRGGYINYVDSVKGRFTVSRDNAKPTMYLQMNSLKPEDTAVYYCHAGTQDRTGRNFDRWGQGTQVTVSSGGGGSGGGGSGGGGSGGGGSGGGGSGGGGSGGGGSEVQLVESGGGLVQPGGSLRLSCVASGRIFSSNAMGWFRQAPGKEREFVAAITWRSGGSAYYADSAKGRFTISRDNAKNTVYLQMNSLKPEDTAVYYCAAGGSSWLSFPPDYWGQGTQVTVSS
# B5: CXCR20034 (bispecific antibody, not shown: small tags and cut ends)
# chain: EVQLVESGGGLVQAGGSLRLSCAASGRTFSDYAMGWFRQAPGKEREFVAAITWNGGRVFYTASVKGRFTISRDNAKNTMYLQMNSLKPEDTAVYYCAADKDRRTDYLGHPVAYWGQGTQVTVSSGGGGSGGGGSGGGGSGGGGSGGGGSGGGGSGGGGSEVQLVESGGELVQPGGSLRLSCAASGSILTINAMGWYRQAPGKQRELVVRRTRGGSTTYQDSVKGRFTISADIAKKTMYLQMNSLKPEDTAVYYCMLDDRGGVYWGQGTQVTVSS
# B6: CXCR20030 (other, not shown: small tags and cut ends)
# chain: EVQLVESGGGLVQAGGSLRLSCAASGRTFSDYAMGWFRQAPGKEREFVAAITWNGGRVFYTASVKGRFTISRDNAKNTMYLQMNSLKPEDTAVYYCAADKDRRTDYLGHPVAYWGQGTQVTVSSGGGGSGGGGSGGGGSGGGGSGGGGSGGGGSGGGGSEVQLVESGGGLVQAGGSLTLSCAVSGSTFRINTMGWYRRAPGKQRELVAARDRGGYINYVDSVKGRFTVSRDNAKPTMYLQMNSLKPEDTAVYYCHAGTQDRTGRNFDRWGQGTQVTVSS
# B7: CXCR20014 (bispecific antibody, not shown: small tags and cut ends)
# chain: EVQLVESGGGLVQPGGSLRLSCVASGSIVRINTMGWYRQTPGKQRELVADITSGGNINYIDAVKGRFTISRDNTKNTVYLQMNSLKPEDTAVYYCNAEIVVLVGVWTQRARTGNYWGQGTQVTVSSGGGGSGGGGSGGGGSGGGGSGGGGSGGGGSGGGGSEVQLVESGGELVQPGGSLRLSCAASGSILTINAMGWYRQAPGKQRELVVRRTRGGSTTYQDSVKGRFTISADIAKKTMYLQMNSLKPEDTAVYYCMLDDRGGVYWGQGTQVTVSS
# B8: CXCR20028 (other, not shown: small tags and cut ends)
# chain: EVQLVESGGGLVQPGGSLRLSCVASGSIVRINTMGWYRQTPGKQRELVADITSGGNINYIDAVKGRFTISRDNTKNTVYLQMNSLKPEDTAVYYCNAEIVVLVGVWTQRARTGNYWGQGTQVTVSSGGGGSGGGGSGGGGSGGGGSGGGGSGGGGSGGGGSEVQLVESGGGLVQAGGSLTLSCAVSGSTFRINTMGWYRRAPGKQRELVAARDRGGYINYVDSVKGRFTVSRDNAKPTMYLQMNSLKPEDTAVYYCHAGTQDRTGRNFDRWGQGTQVTVSS
# B9: CXCR20023 (bispecific antibody, not shown: small tags and cut ends)
# chain: EVQLVESGGGLVQAGGSLRLSCAASGRTFSDYAMGWFRQAPGKEREFVAAITWNGGRVFYTASVKGRFTISRDNAKNTMYLQMNSLKPEDTAVYYCAADKDRRTDYLGHPVAYWGQGTQVTVSSGGGGSGGGGSGGGGSGGGGSGGGGSGGGGSGGGGSEVQLVESGGGLVQPGGSLRLSCVASGRIFSSNAMGWFRQAPGKEREFVAAITWRSGGSAYYADSAKGRFTISRDNAKNTVYLQMNSLKPEDTAVYYCAAGGSSWLSFPPDYWGQGTQVTVSS
# B10: 127D01 (VHH, not shown: small tags and cut ends)
# VHH: EVQLVESGGGLVQAGESLRLSCAASGSTFDFKVMGWYRQPPGKQREGVAAIRLSGNMHYAESVKGRFTISKANAKNTVYLQMNSLRPEDTAVYYCKVNIRGQDYWGQGTQVTVSS
# B11: 137B07 (VHH, not shown: small tags and cut ends)
# VHH: EVQLVESGGGLVQPGGSVRLSCVASGIIFRLSALGWTRQGPGKAREWVAGINSDGTTNYADPVKGRFTISRDNAKNTIYLHMDMLKPEDTAVYYCASGKYRGQGTQVTVSS
# Target: T1, Cynomolgus CXCR2
# Experiment: cell-based or functional assay
row,Binder,Cynomologus WBSC IC50 (vs rhGROα)
1,B1,0.42 nM
2,B2,0.12 nM
3,B3,0.26 nM
4,B4,0.43 nM
5,B5,0.44 nM
6,B6,0.56 nM
7,B7,0.16 nM
8,B8,1.72 nM

# Target: T2, Human CXCR2
# Experiment: cell-based or functional assay
Binder,Human Chemotaxis IC50 (vs rhGROα),Human WBSC IC50 (vs rhGROα)
B1,0.145 nM,0.345 nM
B2,0.145 nM,0.17 nM
B3,0.14 nM,0.165 nM
B4,–,0.24 nM
B5,0.145 nM,0.29 nM
B6,–,0.215 nM
B7,0.16 nM,0.445 nM
B8,–,0.43 nM

# Target: T1, Cynomolgus CXCR2
# Experiment: cell-based or functional assay
# Remark: another data set of the same source
row,Binder,"FLIPR IC50, GRO-α induced intracellular calcium release"
1,B1,4.46 nM
2,B2,1.64 nM
3,B3,9.1 nM
4,B4,8.72 nM
5,B5,9.47 nM
6,B9,12 nM
7,B6,6.36 nM
8,B7,13.7 nM
9,B8,17 nM

# Target: T2, Human CXCR2
# Experiment: cell-based or functional assay
# Remark: another data set of the same source
row,Binder,"FLIPR IC50, GRO-α induced intracellular calcium release"
1,B1,17.9 nM
2,B2,6.98 nM
3,B3,12.3 nM
4,B4,10.2 nM
5,B5,11.8 nM
6,B9,14.8 nM
7,B6,11.8 nM
8,B7,6.84 nM
9,B8,21.9 nM

# Target: T2, Human CXCR2
# Experiment: cell-based or functional assay
# Remark: another data set of the same source
Binder,"[35S]GTPγS % inhibition of max, GRO-α","[35S]GTPγS accumulation IC50, GRO-α","[35S]GTPγS % inhibition of max, ENA-78","[35S]GTPγS % inhibition of max, IL-8","[35S]GTPγS accumulation IC50, ENA-78","[35S]GTPγS accumulation IC50, IL-8"
B1,100%,1.01 nM,–,–,–,–
B2,100%,0.634 nM,100%,100%,0.707 nM,0.619 nM
B3,100%,0.809 nM,–,–,–,–
B4,100%,0.844 nM,100%,100%,1.17 nM,0.717 nM
B5,100%,0.995 nM,–,–,–,–
B9,100%,26.6 nM,–,–,–,–
B6,100%,1.02 nM,100%,100%,1.3 nM,1.09 nM
B7,100%,1.38 nM,100%,100%,1.66 nM,1.13 nM
B8,100%,1.38 nM,–,–,–,–

# Target: T2, Human CXCR2
# Experiment: cell-based or functional assay
# Remark: another data set of the same source
Binder,Human Chemotaxis IC50 (GROα),HumanWBSC IC50 (rhGROα)
B10,3.9 nM,4.9 nM

# Target: T1, Cynomolgus CXCR2
# Experiment: cell-based or functional assay
# Remark: another data set of the same source
row,Binder,"FLIPR IC50, GRO-α induced intracellular calcium release"
1,B10,753 nM

# Target: T2, Human CXCR2
# Experiment: cell-based or functional assay
# Remark: another data set of the same source
Binder,"FLIPR IC50, GRO-α induced intracellular calcium release","[35S]GTPγS % inhibition max, GRO-α","[35S]GTPγS accumulation IC50, GRO-α"
B11,6.71 nM,–,–
B10,21.9 nM,66%,12.5 nM
